# Results reported in the DeepSol protein solubility set.
# Assay: soluble on expression in E. coli; label from the status in PepcDB or PDB records
row,Sequence,soluble on expression in E. coli
1,MSLAQLGRFWHISDLHLDPNYTVSKDPLQVCPSAGSQPVLNAGPWGDYLCDSPWALINSSLYAMKEIEPKPDFILWTGDDTPHVPNESLGEAAVLAIVERLTNLIKEVFPDTKVYAALGNHDFHPKNQFPAQSNRIYNQVAELWRPWLSNESYALFKRGAFYSEKLPGPSRAGRVVVLNTNLYYSNNEQTAGMADPGEQFRWLGDVLSNASRDGEMVYVIGHVPPGFFEKTQNKAWFRESFNEEYLKVIQKHHRVIAGQFFGHHHTDSFRMFYDNTGAPINVMFLTPGVTPWKTTLPGVVDGANNPGIRIFEYDRATLNLKDLVTYFLNLRQANVQETPRWEQEYRLTEAYQVPDASVSSMHTALTRIASEPHILQRYYVYNSVSYNHLTCEDSCRIEHVCAIQHVAFNTYATCLHGLGAKLVPGEGHHHHHH,not soluble
2,MTNRQWETLREYDEIKYEFYEGIAKVTINRPEVRNAFTPKTVAEMIDAFSRARDDQNVSVIVLTGEGDLAFCSGGDQKKRGHGGYVGEDQIPRLNVLDLQRLIRIIPKPVIAMVKGYAVGGGNVLNVVCDLTIAADNAIFGQTGPKVGSFDAGYGSGYLARIVGHKKAREIWYLCRQYNAQEALDMGLVNTVVPLEKVEDETVQWCKEIMKHSPTALRFLKAAMNADTDGLAGLQQMAGDATLLYYTTDEAKEGRDAFKEKRDPDFDQFPKFP,soluble
3,MTTVSNIHHASKPRLNTLLVTARDSPYDTTLPARTPVDFCRPGSQWRVMDIDLVLAPVDGSDQSERAAEYAIAVAERYDADLHLLFVIDERLHQDIDSGDVSATAIAEEHQAFTESIRDRFRDAHDGVFETSSATAFSETRLMQTPGSVVLDVAEDLDSDFIVVPREEGSEEAVGRAAIYVIEYASQPVLTV,not soluble
4,MSLAWLISEFASVGDVTVRALRYYDKINLLKPSDYTEGGHRLYTKDDLYVLQQIQSFKHLGFSLGEIQNIILQRDIETEVFLRQMHFQREVLLAEQERIAKVLSHMDEMTKKFQKEERVNVALFSSFLQTFIWEKENKEWLEEHFSTESIQAFYNNKELKEKFDRRFMDVIGKLKKYKEEEKDPSHHDVQVTLKEFFHLIEKITDYLDISQSEVVSVIKQSKISMAEFPTLFTNEEEQYIKEAMNKEGHHHHHH,soluble
5,MTDTRVLAVANQKGGVAKTTTVASLGAAMVEKGRRVLLVDLDPQGCLTFSLGQDPDKLPVSVHEVLLGEVEPNAVLVTTMEGMTLLPANIDLAGAEAMLLMRAGREYALKRALAKFSDRFDVVIIDCPPSLGVLTLNGLTAADKAIVPLQCEMLAHRGVGQFLRTVADVQQITNPNLRLLGALPTLYDSRTTHTRDVLLDVADRYDLQVLAPPIPRTVRFAEASASGSSVMAGRKNKGAVAYRELAQALLKHWKTGRPLPTFTVDL,soluble
6,MSLKPTDLNLIPIFIAIYEERNLSRAAARLDITQPAVSKALARLRDIYDEPLFHRSSSGVEPTSFAVDIYPAMVAAIKNFTSTLSASVEFDPKVSNRIFSIACVSILSYELLPQLMKQIHELAPNIALEVHPLFTEDYESDLRLQRYDLIIDLAPRGRTVLKVEPVITERLMVVCNKDHPRIAESISQEQFFEEEHVAVSQWQSRKSMLSAEDIVDLDKRKIMYRAAGALEMLPVICGSEYIGLMPESMIKLFSNTYHVKALPFPFDVTTYDLCTIWHPSRTNESAHQWLRAQIKHAGKVIKEGHHHHHH,soluble
7,GSHMTSFLHAYFTRLHCQPLGVPTVEALRTLHLAHNCAIPFENLDVLLPREIQLDETALEEKLLYARRGGYCFELNGLFERALRDIGFNVRSLLGRVILSHPASLPPRTHRLLLVDVEDEQWIADVGFGGQTLTAPLRLQAEIAQQTPHGEYRLMQEGSTWILQFRHHEHWQSMYCFDLGVQQQSDHVMGNFWSAHWPQSHFRHHLLMCRHLPDGGKLTLTNFHFTRYHQGHAVEQVNVPDVPSLYQLLQQQFGLGVNDVKHGFTEAELAAVMAAFDTHPEAGK,soluble
8,MNDNTHTLPPRHLSVAPMLDWTDRHYRYLARQITRNTWLYSEMVNAGAIVYGDKDRFLMFNEGEQPVALQLGGSDPSDLAKAAKAAEAYGYNEVNLNCGCPSPRVQKGSFGACLMNEVGLVADCLNAMQDAVKIPVTVKHRIGVDRQTEYQTVADFVGTLRDKTACKTFIVHARNAWLDGLSPKENRDVPPLKYDYVYRLKQEFPGLEIIINGGITTNEAIAGHLQHVDGVMVGREAYHNPMVMREWDRLFYGDTRSPIEYADLVQRLYTYSQAQIQAGRGTILRHIVRHSLGLMHGLKGARTWRRMLSDATLLKDNDGSLILEAWKEVERANMRE,not soluble
9,MGSDKIHHHHHHMKDVQNEKDPRMVPLKKVGIKDLHWPLKVILKEDGYQSTVAQISCSVDLHREKRGIHMSRFIEVLNKLEVITPQIFEEILDDLIEIMEAKRAHLEIHFPYFIWKESPVSRKKSPLKVDCFVEAEKEKNFSFKIGVRTPVHTLCPCSKEISDYGAHNQRAFVEITVKTRKFIWFEDLVEIAEKNASSPLYTLLKRPDEKFVTEKAYENPRFVEDVARDVALELEKDPRITWYRVYVESMESIHNHNAFACVEKGDFVLEG,not soluble
10,MPCRLTRLFGIEFPIIQAPMAGVQGSALAIAVSEAGGLGSLPCAMLSLEALEAELTAIRSQTAKPINVNFFCHREPVAQAAKQAAWLEQLAPYFAEFNLDPNAQPAGAQRTPYSKAQAEVLAKFKPEVVSFHFGLPDEELLLEIKSWGSKVISTATTVEEALWLEARGADAIIAQGLEAGGHRGHFLSEDLTEQLGTFSLLPQIIAAVEIPVIAAGGIVDATTVRAAMTMGASAVQVGTAYLLCPECNTSAIHREALQSDAAQHTALTNLFSGRPARGIVNRFMAEMGPMNEAVPDFPLASSAVAGLRTAAERLGFWDFSPLWCGQNASGCRAIPAADLTRSFVLSLPSSCVEPQEKSG,soluble
11,GGDGNITTENIPVSEYDCLELEGGGMVVNYTQSDAPEGLEIKTDRNIFEKYEFNVENHKLKIRPKKEFRKHTNFRPTEFMVTANSRNLKKLAAAGSTHVNINSPLQAEEFEAGLAGSGIIQFHDTASFTNLKIEIAGSGDFVGHKVYCEELNGDMAGSNTIVLGGTVGIAEFSIAGSGTVRAFDCTMDELECKIAGSGDIEAFVVNKIKAEIAGSGSVKYKGDPQDIQKKVMGSGKIEKVE,soluble
12,GPGSMEQWSACEAATRRVLAVDRTERYPSARRLVRVFISQGRLQEAQQAVSPHRDAIDWAAEVAAVKACTSYTNFYAAHQYSKALESLEVVLSLCPCGTLEAAKARLLSLENAAQAVSYAAQRSRAYATSTELHFCLWSLTFHSVTSVVGLDTLLADMQATPLGRSELRFRHLHTHIARCKEALAKLQVLKTARQWREAATFVTQVLAEPFLPDGLKGVMYYERARALAQQASWYATLDDTHRALSYTEAVSLRANMLLLVARCEEALGRLRDAVYHTEESLGLASNAAAVEQLRSLKARWAHVQASTDAPRTTPRTTSKETPKPNTNANAFSPVSRASLDVHYKTLSLPRSAGAAEVKKSYRALAIKWHPDRWCSASTEAIRTAESTFKTIQHAYEEIMKSAS,not soluble
13,MGSDKIHHHHHHMYNVQTYKEKISRFEEVCFNWELKRASIVLNKRFSSYNSSAKVLLDAGFSLYAAKIEVCRELNNGEELERQYTYRSIAEGTLSEKDFKYIWEQCMSGSGNQTSILTIDEHFYSVQTELDKGWEKSCIVFYDKNEPIGMSIPHIETGTESEGRLFYFGVMLYYRGKGIASRLHLQSLHMLKEMGATYYIGSTHTSNEKMQRIFWRNNCSLKTEIELYYKIFNEG,not soluble
14,CLAEGTRIFDPVTGTTHRIEDVVYGRKPIHVVAAAKDGTLHARPVVSWFDQGTRDVIGLRIAGGAIVWATPDHKVLTEYGWRAAGELRKGDRVAVRDVETGELRYSVIREVLPTRRARTFDLEVEELHTLVAEGVVVHN,soluble
15,MARRILVVEAEAPIREMVCFVLEQNGFQPVEAEDYDSAVNQLNEPWPDLILLEWMLPGGSGIQFIKHLKRESMTRDIPVVMLTARGEEEDRVRGLETGADDYITKPFSPKELVARIKAVMRRISPMA,soluble
16,MQPPPRKVKPAQEVKLRFLEQLSILQTWQQREADLLEDIRSYSKQRAAIEREYGQALQKLAGPFLKREGHRSGEMDSRGRTVFGAWRCLLDATVAGGQTRLQASDRYRDLAGGTGRSAKEQVLRKGTENLQRAQAEVLQSVRELSRSRKLYGQRERVWALAQEKAADVQARLNRSDHGIFHSRTSLQKLSTKLSAQSAQYSQQLQAARNEYLLNLVATNAHLDHYYQEELPALLKALVSELSEHLRDPLTSLSHTELEAAEVILEHAHRGEQTTSQVSWEQDLKLFLQEPGVFSPTPPQQFQPAGTDQVCVLEWGAEGVAGKSGLEKEVQRLTSRAARDYKIQNHGHRVLQRLEQRRQQASEREAPSIEQRLQEVRESIRRAQVSQVKGAARLALLQGAGLDVERWLKPAMTQAQDEVEQERRLSEARLSQRDLSPTAEDAELSDFEECEETGELFEEPAPQALATRALPCPAHVVFRYQAGREDELTITEGEWLEVIEEGDADEWVKARNQHGEVGFVPERYLNFPDLSLPESSQDSDNPCGAEPTAFLAQALYSYTGQSAEELSFPEGALIRLLPRAQDGVDDGFWRGEFGGRVGVFPSLLVEELLGPPGPPELSDPEQMLPSPSPPSFSPPAPTSVLDGPPAPVLPGDKALDFPGFLDMMAPRLRPMRPPPPPPAKAPDPGHPDPLT,soluble
17,AHHHHHHGSNAVEIISREISPTLDIQTKILEYMTDFFVKEGFKWLLPVIISPITDPLWPDPAGEGMEPAEVEIYGVKMRLTHSMILHKQLAIAMGLKKIFVLSPNIRLESRQKDDGRHAYEFTQLDFEVERAKMEDIMRLIERLVYGLFRKAEEWTGREFPKTKRFEVFEYSEVLEEFGSDEKASQEMEEPFWIINIPREFYDREVDGFWRNYDLILPYGYGEVASGGEREWEYEKIVAKIRKAGLNEDSFRPYLEIAKAGKLKPSAGAGIGVERLVRFIVGAKHIAEVQPFPRIPGIPAVI,soluble
18,DSLGNLVDGDQIIYIIAKDRHQRGVLHGGVVGTLMSNYGLELAITSLGVPFQRSKVGDRYVLETLREKDWKIGGETSGHIVCLDKTTTGDGIVAALQVLSIMVKQNKALHELTAGIQLL,not soluble
19,KRETDNGHDVFESFEQMEKTAFVIPSAYGYDIKGYHVAPHDTPNTIIICHGVTMNVLNSLKYMHLFLDLGWNVLIYDHRRHGQSGGKTTSYGFYEKDDLNKVVSLLKNKTNHRGLIGIHGESMGAVTALLYAGAHCSDGADFYIADCPFACFDEQLAYRLRAEYRLPSWPLLPIADFFLKLRGGYRAREVSPLAVIDKIEKPVLFIHSKDDDYIPVSSTERLYEKKRGPKALYIAENGEHAMSYTKNRHTYRKTVQEFLDNMNDSTE,not soluble
20,MGSDKIHHHHHHMKNSAPNKDGSIEANLTDLQVQTELYQWLSLVSHQRDKQAFTELFQFFAPKIKRFGMQRLGSNDKANELVQETMSNVWRKAHLYDGEKGAATTWVYTVMRNACFDMLRRIKTRNEQLLGDDIWPVEQALAENNPESETFSDHLMEQHMREHINKLPSSQQTVVKGVYFQSLSQEQLAQQLDVPLGTIKSRLRLALARLKLQMRDEYHD,not soluble
21,MSITSTDICQAADALKGFVGFNRKTGRYIVRFSEDSFGMDVADDSITPTSEFVWSSVRDDVMRLGREQLQILLEQNINERLNIGEPLLVYLRRQDLPEITAQRQLR,not soluble
22,MGSDKIHHHHHHMGILYLKEHTSCYNYTKCIREGFLYHKFCDIEMDEEINETDSILFVIEGELEMSCNGKKMKLLAGNMICFGRGSRFKIHSRGKGSIVIAQFDNAVQSCEKISFAQLNSLDSPGDKIYPLEIRDRLHLFLKLLISYLEDGANCVHFHETKLKELFWSIRFYYTKTEQAAFFHPILGNDYDFKKKIFNNYRNARTVKELAGLCGTPLSSFKRKFLKEFREPAGNWLQKQINNIIKYKLADEDIPIGNIAEELHFSSHPQFCRYCKRNFGYTPGEWRKLLKNRDKTPGKLSGRV,not soluble
